Laboratory results published in the supplement of paper PMC10567573.

B1: PLAGL1 (parent)
chain: TKEKKHQCDHCERCFYTRKDVRRH

Variants of: B1
Assay: protein stability index of a GFP-peptide fusion (GPS, HEK-293T) (PSI 1-6); higher = more stable
Details: c terminus: a fixed tail appended
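Also: lentivirally expressed fusions sorted by FACS into six bins by GFP to DsRed ratio, PSI derived from sequencing read proportions per bin multiplied by bin number.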

Protein stability index, by site and new letter:
R18: K 3.09 | D 3.82 | I 3.06 | G 2.87 | M 2.95 | C 3.06 | F 2.76 | H 3.29 | A 3.54 | L 3.76 | E 3.61
C14: W 3.65 | S 3.28 | H 3.12 | F 3.18 | T 3.6 | I 2.65 | Q 3.41 | N 3.25 | P 3.29 | L 3.06 | V 3.42 | E 3.69 | M 3.52 | K 3.78 | G 4.02 | R 3.16 | D 3.54 | Y 3.27 | A 3.11
Y16: N 4.2 | I 3.18 | S 3.63 | P 3.13 | W 3.26 | Q 3.88 | C 3.74 | T 3.58 | E 4.19 | G 3.79 | L 3.4 | K 3.14 | H 3.46 | A 4.02 | D 4.12 | F 3.58 | R 4 | M 3.75 | V 3.75
H10: Q 3.47 | I 2.71 | P 3.4 | T 3.37 | G 4.13 | E 3.37 | N 3.6 | L 2.55 | W 2.67 | M 3.33 | Y 2.46 | A 3.33 | V 3.37 | R 3.41 | D 3.79 | F 2.36 | K 3.91 | C 3.33 | S 3.68
K4: H 3.42 | S 2.93 | Q 3.4 | M 3.27 | N 3.08 | F 3.21 | W 2.95 | A 3.32 | T 3.27 | C 3.87 | G 3.49 | R 3.29 | P 3.33 | E 4.01 | L 2.9 | V 3.24 | I 3.57 | Y 3.03 | D 3.84
R13: P 2.75 | Q 4.24 | E 3.66 | T 3.06 | F 3 | S 3.35 | H 3.87 | Y 2.63 | L 3.27 | N 3.81 | I 2.62 | K 3.54 | D 3.79 | G 3.25 | M 3.26 | V 3.41 | C 3.39 | A 3.77 | W 2.61
Q7: D 3.43 | K 3.8 | M 2.71 | S 3.25 | R 3.33 | N 3.21 | Y 2.81 | F 2.91 | H 3.73 | V 3.23 | P 2.82 | E 3.31 | L 2.54 | G 2.89 | W 2.77 | I 3.32 | A 3.41 | C 3.36 | T 2.74
D9: G 3.66 | A 2.67 | F 2.31 | C 3.14 | T 2.92 | W 2.84 | N 4.02 | Y 2.46 | H 3.02 | R 2.92 | Q 3 | K 3.24 | S 3.14 | E 3.32 | I 2.53 | M 3.5 | P 3.11 | L 2.98 | V 2.47
T1: N 3.38 | I 3.57 | S 3.46 | K 3.59 | L 3.34 | R 3.37 | V 3.5 | H 3.12 | W 3.54 | Q 3.52 | M 3.39 | F 3.1 | C 3.75 | Y 3.31 | A 3.1 | D 3.04 | E 3.82 | P 3.48 | G 3.68
E12: Q 3.15 | V 3.24 | L 3 | Y 3.3 | N 3.19 | P 4.17 | S 3.03 | G 4.02 | I 2.89 | M 3.15 | A 3.05 | C 3.27 | W 2.69 | R 3.15 | K 3.09 | D 3.6 | F 3.12 | T 3.15 | H 3.34
F15: R 3.77 | Y 3.48 | Q 3.79 | T 4.24 | G 2.83 | C 2.83 | E 3.61 | W 3.41 | D 2.98 | H 3.46 | P 3.06 | L 3.9 | K 3.94 | M 4.05 | N 3.48 | I 3.62 | A 3.79 | V 3.47 | S 3.05
C11: N 3.39 | Y 3.22 | I 3.65 | A 3.62 | E 4.31 | K 3.86 | T 3.24 | H 3.31 | G 3.61 | V 3.73 | P 3.98 | R 4.11 | S 3.42 | D 3.96 | Q 3.91 | W 3.46 | F 3.27 | L 3.71 | M 3.57
T17: K 3.4 | D 3.61 | P 3.1 | I 3.01 | G 3.05 | Y 3.09 | Q 3.44 | E 3.81 | S 3.12 | M 3.26 | H 3.29 | A 3.6 | R 3.63 | L 3.77 | C 4.01 | V 3.22 | F 4.01 | W 2.74 | N 3.7
H6: R 2.95 | G 2.88 | A 2.39 | K 3.19 | Y 3.43 | V 2.67 | L 2.5 | E 3.55 | Q 3.08 | P 2.94 | W 2.51 | D 2.91 | C 3.7 | N 3.33 | S 2.88 | I 2.94 | M 2.7 | F 3.01 | T 2.86
K5: H 3.82 | V 3.63 | Y 3.19 | F 3.22 | N 3.03 | I 3.13 | T 3.22 | D 3.53 | Q 3.67 | R 3.75 | G 3.04 | A 3.78 | L 3.67 | M 3.81 | P 3.67 | W 3.06 | S 3.46 | C 2.59 | E 3.67
K2: T 3.67 | V 3.3 | G 3.15 | Y 3.21 | I 3.08 | M 3.71 | C 3.25 | R 3.77 | P 3.1 | Q 3.67 | D 4.04 | S 3.39 | H 3.55 | A 3.58 | W 3.16 | F 3.02 | L 2.75 | E 3.65 | N 3.21
C8: N 3.29 | A 3.53 | M 2.98 | E 3.84 | S 3.48 | F 2.6 | Y 2.78 | T 3.24 | H 3.25 | P 3.17 | D 3.61 | V 3.12 | L 3.56 | Q 3.53 | G 3.02 | W 2.75 | K 3.43 | R 3.42 | I 3.1
E3: N 3.59 | F 3.29 | H 3.55 | A 3.31 | Q 3.35 | Y 3.12 | G 3.45 | L 3.14 | V 3.28 | C 4.51 | I 3.01 | S 3.48 | M 3.53 | D 3.49 | T 3.32 | P 3.63 | R 3.59 | K 3.5 | W 2.73
